Test results as given in publication PMC4138198.

What was measured:
[1] = molecular target: Pmr (plasmid pCAR1 (isolated originally from P. resinovorans CA10)); assay: SPR; Biacore 2000, biotinylated Pmr, TurA or TurB (about 500 RU) immobilised on streptavidin chip SA, Pmr as analyte at lower concentrations; 4°C, 20 mM Tris-HCl pH 7.5, 0.5 M NaCl, 5% glycerol, 475 mM imidazole, 30 ul/min; Req divided by the immobilised amount
TurA (P. putida KT2440) = assay: as above
[2] = molecular target: Pmr (plasmid pCAR1 (isolated originally from P. resinovorans CA10)); assay: SEC; 1 ml of purified protein at 140 uM on HiLoad 16/60 Superdex 200 prep grade in buffer B (20 mM Tris-HCl pH 7.5, 4°C, 0.5 M NaCl, 10% glycerol, 0.5 M imidazole); fractions checked by Tricine-SDS-PAGE and anti-His Western blot
[3] = molecular target: Pmr-R8A (plasmid pCAR1 (isolated originally from P. resinovorans CA10)); assay: as above

binding amount of APmr per ligand homodimer, relative to LTurB-APmr [1]	binding amount of APmr per ligand homodimer, relative to LTurB-APmr (TurA (P. putida KT2440))	stoichiometry N [2]	stoichiometry N [3]	Substance
2 fold	2 fold	35 -mer		Pmr (natural protein)
			6 -mer	Pmr-R8A (natural protein)
